Consider 10 molecules from paper PMC10009750, “Development of Selective ADAMTS-5 Peptide Substrates to Monitor Proteinase Activity” (Journal of Medicinal Chemistry, 2023).

Non-standard residues stand in square brackets, D forms with d. No end group written: not given here. Tyr(3-NO2) = N[C@@H](Cc1ccc(O)c([N+](=O)[O-])c1)C(=O)O; 2Abz = Nc1ccccc1C(=O)O

In assay [1] the target is T1, TS5-5 (combined catalytic and disintegrin domain of ADAMTS-5) (Homo sapiens, UniProt Q9UNA0).
T1 construct: ADAMTS-5 (i.e. TS5-5, residues 264–555); FLAG; made in house; host or cells: HEK293 cells (previously transfected stocks)
T1 sequence (Q9UNA0 264-555): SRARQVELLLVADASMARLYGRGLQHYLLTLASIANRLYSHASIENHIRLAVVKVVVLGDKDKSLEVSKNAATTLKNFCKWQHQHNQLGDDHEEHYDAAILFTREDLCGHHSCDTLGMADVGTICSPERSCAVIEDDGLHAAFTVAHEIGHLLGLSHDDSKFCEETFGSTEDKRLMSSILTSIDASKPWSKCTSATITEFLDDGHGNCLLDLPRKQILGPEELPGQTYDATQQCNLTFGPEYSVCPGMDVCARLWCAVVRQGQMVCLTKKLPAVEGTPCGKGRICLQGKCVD
The experiment in a line: Cleavage of FRET peptide substrates by TS5-5 in solution (activity/selectivity studies). Type of assay: biochemical. As to conditions: substrate 20 μM, TNC buffer with 0.005% (v/v) Brij-35, 37 °C; mean of 3–4 independent experiments in triplicate. Here is the method:
(§1) All proteinase assays were performed at 37 °C in a SpectraMax M5 spectrophotometer (Molecular Devices, San Jose, USA) using a 96-well black microplate (Greiner bio-one, Stonehouse, UK) unless otherwise stated. […] N-TIMP-3 was purified as described previously[30] and CT-1746 was a gift from Dr. Yoshifumi Itoh (Kennedy Institute of Rheumatology, University of Oxford). All analyses were carried out using Prism 9 software (GraphPad, La Jolla, CA, USA).
To test whether active TS5-5 had been purified, three concentrations of proteinase were assayed. A solution of Abz-TESE↓SRGAIY-Dpa-KK-NH2 (22.22 μM) in freshly prepared TNC buffer with 0.02% (v/v) Brij-35 (180 μL) was added to a 96-well black microplate in triplicate for each proteinase concentration. A substrate-only background control was also added in triplicate (180 μL). The resultant solutions were incubated at 37 °C (30 min). TS5-5 proteinase in TNC buffer with 0.02% (v/v) Brij-35 (20 μL) was added to wells to give final proteinase concentrations of 80 nM, 40 nM and 20 nM. TNC buffer with 0.02% (v/v) Brij-35 (20 μL) was also added to background control wells. The change in RFU was measured at 37 °C for 1 h, with readings every 20 s. Following subtraction of background fluorescence intensity, linear regression analysis of the linear part of each curve was used to determine the cleavage rate, which was expressed as the mean ± SEM in RFU s^–1. For cases where a single concentration of TS5-5 or TS4-4 was assayed, the same procedure was used but with 0.005% (v/v) Brij-35 and using the 5-FAM-AE↓LQGRPISIAK-TAMRA substrate for TS4-4 (0.56 μM). To convert cleavage rates to nM s^–1 nM^–1, the rate in RFU s^–1 was divided by the final concentration of proteinase (nM), then divided by the gradient of the calibration curve for Abz or 5-FAM (expressed in RFU nM^–1).
(§2) Selectivity studies are described for Abz-TESE↓SRGAIY-Dpa-KK-NH2, the library parent peptide 3, and hit peptides 18–26. A solution of Abz-TESE↓SRGAIY-Dpa-KK-NH2 (22.22 μM) in freshly prepared TNC buffer with 0.005% (v/v) Brij-35 (90 μL) was added to a 96-well clear bottom microplate (Greiner bio-one, Stonehouse, UK) in triplicate. A substrate-only background control was also added in triplicate (90 μL). The resultant solutions were incubated at 37 °C (30 min). An ADAMTS or MMP proteinase was added to substrate wells (10 μL) to give a final proteinase concentration of either 50–90 nM (TS4-4), 25–200 nM (TS5-5), 5–10 nM (MMP-2ΔC), 30 nM (MMP-9ΔC), 92 nM (MMP-1), or 3 μM (MMP-3). TNC buffer with 0.005% (v/v) Brij-35 was added to substrate-only control wells (10 μL). The relative fluorescence intensity was measured at 37 °C for 1 h with readings every 20 s. Activity was read from underneath the microplate, which was covered with a low evaporation lid. […] For each ADAMTS and MMP proteinase, the assay was performed 2–4 times. […] Final rates were expressed as a percentage of substrate cleavage by TS5-5 (mean ± SEM) or in μM s^–1 μM^–1 of proteinase.

Assay [2] relates to MMP-9ΔC (catalytic domain of MMP-9). The experiment in a line: Selectivity studies: cleavage of FRET peptide substrates by MMP-9ΔC. The format is biochemical. The settings on record: substrate 20 μM, after 48 h at an MMP-9 concentration of 30 nM, 37 °C. Here is the method:
as §1, §2

Assay [3] addresses T2, TS4-4 (ADAMTS-4) (Homo sapiens, UniProt O75173).
T2 construct: TS4-4, TS5-5 = catalytic and disintegrin domains; made in house; host or cells: HEK293 cells (previously transfected stocks)
T2 sequence (O75173 213-519 limits assumed): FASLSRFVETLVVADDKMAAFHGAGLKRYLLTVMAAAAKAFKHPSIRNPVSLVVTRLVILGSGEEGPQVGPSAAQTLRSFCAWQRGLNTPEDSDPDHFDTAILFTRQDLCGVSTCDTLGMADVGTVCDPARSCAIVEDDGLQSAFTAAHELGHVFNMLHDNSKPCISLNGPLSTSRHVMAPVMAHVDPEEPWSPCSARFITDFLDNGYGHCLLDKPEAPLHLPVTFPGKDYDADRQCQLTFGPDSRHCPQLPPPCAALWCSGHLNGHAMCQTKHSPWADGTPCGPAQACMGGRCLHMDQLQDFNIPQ
Kind of assay: Selectivity studies: cleavage of FRET peptide substrates by TS4-4. As to conditions: substrate 20 μM, TS4-4 50–90 nM, TNC buffer with 0.005% (v/v) Brij-35, 37 °C; mean of 3–4 independent experiments in triplicate. Type of assay: biochemical. Here is the method: as §1, §2

The target of assay [4] is T3, TS5-5 (ADAMTS-5) (Homo sapiens, UniProt Q9UNA0).
T3 construct: ADAMTS-5 (i.e. TS5-5, residues 264–555); FLAG; made in house; host or cells: HEK293 cells (previously transfected stocks)
T3 sequence (Q9UNA0 264-555): T1 sequence (Q9UNA0 264-555)
The experiment in a line: Determination of kinetic parameters (kcat and Km) for substrate cleavage by TS5-5, inner-filter corrected. As to conditions: for decrease in Km compared to the current substrate / lower catalytic rate constant (kcat) compared to the current substrate: TS5-5. The format is biochemical. On the procedure:
A solution of Abz-TESE↓SRGAIY-Dpa-KK-NH2/3/26 (5 mM) or 19/23 (1 mM) in DMSO underwent a 2-fold serial dilution with freshly prepared TNC buffer containing 0.005% (v/v) Brij-35. This gave initial concentrations in the following range: 222.22 to 0.87 μM (Abz-TESE↓SRGAIY-Dpa-KK-NH2/3/23/26) and 177.78 to 1.39 μM (19). Eight substrate concentrations (180 μL) within these ranges (including outer numbers) were added to a 96-well black microplate in triplicate and incubated at 37 °C (20 min). TNC buffer with 0.005% (v/v) Brij-35 was added to substrate-only control wells in a single replicate (180 μL). TS5-5 proteinase was thawed from −80 or −20 °C, made up in TNC buffer with 0.005% (v/v) Brij-35 (300 nM) and added to substrate wells (20 μL). TNC buffer was added to substrate-only control wells (20 μL). Fluorescence intensity was measured at 37 °C for 1 h with readings every 20 s. The rate of substrate cleavage was determined at each substrate concentration and expressed as the mean ± SEM in μM s^–1. The subsequent data was fitted to the Michaelis–Menten eq 2: [drawing 2] 2 where v is the rate of the reaction, Vmax is the maximal rate of the reaction, Km is the Michaelis constant, and [S] is the substrate concentration. This equation enabled the Km value to be determined. The catalytic rate constant kcat was determined from eq 3: [drawing 3] 3 where [E] is the concentration of proteinase, and kcat and Vmax are as defined previously. These initial Km and kcat parameters were determined from n = 3–4 independent experiments with final values for these parameters reported after a correction for the inner-filter effect.
This was performed based on the protocol described in Liu et al.([40]) to correct for quenching of the released Abz fluorophore by uncleaved substrate. Two sets of initial substrate concentrations were prepared as described in the previous section. Both sets of substrate concentrations (180 μL) were added to a 96-well black microplate in triplicate. Two buffer-alone controls with TNC buffer containing 0.005% (v/v) Brij-35 (180 μL) were also added in triplicate. All solutions were incubated at 37 °C (20 min). Abz fluorophore (1 M) in DMSO was serially diluted to 1 mM in DMSO, before further dilution to 100 μM using TNC buffer containing 0.005% (v/v) Brij-35. TNC buffer containing 0.005% (v/v) Brij-35 (20 μL) was added to the first set of substrate concentrations as well as to the first buffer-alone control. Abz fluorophore (20 μL, 100 μM) was added to the second set of substrate concentrations as well as the second buffer-alone control. The end-point fluorescence intensity was measured at 37 °C using λex = 300 nm and λem = 430 nm. At each substrate concentration, […] to give the actual fluorescence of the Abz fluorophore (RFUAbz). These values were divided by RFUAbz at a substrate concentration of 0 μM to give the correction factor for each concentration. The rates for each substrate concentration described in the previous section were divided by their respective correction factors (Tables S6–S10) to deliver the inner-filter corrected kcat and Km values.

The target in assay [5] is combined catalytic and disintegrin domain of ADAMTS-5 (TS5-5) (UniProt Q9UNA0).
The mark [6] stands for this setting: TS5-5, TNC buffer with 0.005% (v/v) Brij-35, 37 °C, corrected for inner filter effect, mean ± SEM from 3–4 independent experiments in triplicate.
Setting [7] is: supplementary CSV copy of Table 3, TS5-5, 37 °C.

As for “KY(NO2)NDTESOAK(Abz)AHFUKG [Compound 24]”, the “rate of cleavage by TS5-5” value in assay [1] was 1.41 × 10^–4 μM s^–1 μM^–1. Also, the “cleavage by MMP-9ΔC” value in assay [2] is given as “no signs of cleavage”.
The like results for “KY(NO2)NESESKAK(Abz)VHYKKG (K[Tyr(3-NO2)]NESESKAK(2Abz)V-{H2N-Tyr-Lys-Lys-Gly}) [Compound 25]” were, in that order, 1.78 × 10^–2 μM s^–1 μM^–1 and “no signs of cleavage”.
Turning to “KY(NO2)TENESRGK(Abz)IYYKKG (K[Tyr(3-NO2)]TENESRGK(Abz)IYYKKG) [Compound 19]”, the “rate of cleavage by TS4-4” value in assay [3] is recorded as 0.08–0.10 μM s^–1 μM^–1. In assay [4], the “decrease in Km compared to the current substrate” value was roughly 4 fold and the “lower catalytic rate constant (kcat) compared to the current substrate” value is roughly 7 fold. Besides, in assay [4] (setting [6]), the Km stood at 30.5 ± 2 µM, the kcat was 0.53 ± 0.014 s⁻¹ and the kcat/Km was 17500 ± 1080 M⁻¹ s⁻¹. In addition, in assay [4] (setting [7]), the kcat was found to be 0.53 ± 0.014 s⁻¹.
Take “KY(NO2)QDSESBAK(Abz)JHYUKG [Compound 20]”: the “rate of cleavage by TS5-5” value in assay [1] was 1.22 × 10^–3 μM s^–1 μM^–1. In addition, in assay [2], the “cleavage by MMP-9ΔC” value is recorded as “no signs of cleavage”.
For the molecule “KY(NO2)SESESRGK(Abz)IYYKKG (K[Tyr(3-NO2)]SESESRGK(Abz)IYYKKG) [Compound 23]”, in assay [4], the “decrease in Km compared to the current substrate” value is roughly 2 fold and the “lower catalytic rate constant (kcat) compared to the current substrate” value is listed as roughly 3 fold. Moreover, in assay [4] (setting [6]), the Km came out at 64.6 ± 4.6 µM, the kcat stood at 1.14 ± 0.11 s⁻¹ and the kcat/Km amounted to 18200 ± 2940 M⁻¹ s⁻¹. Further, the kcat in assay [4] (setting [7]) was determined as 1.14 ± 0.11 s⁻¹.
In the case of “KY(NO2)TETESOAK(Abz)IYFKKG [Compound 22]”, the “rate of cleavage by TS5-5” value in assay [1] is recorded as 7.38 × 10^–2 μM s^–1 μM^–1.
As for “ortho-aminobenzoyl(Abz)-TESE↓SRGAIY-N-3-[2,4-dinitrophenyl]-L-2,3-diaminopropionyl(Dpa)-KK-NH2 (peptide)”, in assay [5], the Km of cleavage of the FRET peptide by TS5-5 (Michaelis-Menten fit, corrected for the inner-filter effect, 37 °C, TNC buffer with 0.005% Brij-35) was determined as 125 µM.
Still for that read-out and setting: in the case of K[Tyr(3-NO2)]SENESRGK(2Abz)IYYKKG [KY(NO2)SENESRGK(Abz)IYYKKG (26)] it was 76.9 µM.
Regarding K[Tyr(3-NO2)]TENESRGK(2Abz)IYYKKG [KY(NO2)TENESRGK(Abz)IYYKKG (19)], in assay [5], the Km of cleavage of the FRET peptide by TS5-5 (Michaelis-Menten fit, corrected for the inner-filter effect, 37 °C, TNC buffer with 0.005% Brij-35) was 30.5 µM.
Still for that read-out and setting: in the case of K[Tyr(3-NO2)]TESESRGK(2Abz)IYYKKG [KY(NO2)TESESRGK(Abz)IYYKKG (3)] it was 29.5 µM.
